Assay results from paper PMC4336284.

System: T1, GAF (GAGA-binding factor), His-GAF (Drosophila melanogaster), Q08605-2
T1 sequence: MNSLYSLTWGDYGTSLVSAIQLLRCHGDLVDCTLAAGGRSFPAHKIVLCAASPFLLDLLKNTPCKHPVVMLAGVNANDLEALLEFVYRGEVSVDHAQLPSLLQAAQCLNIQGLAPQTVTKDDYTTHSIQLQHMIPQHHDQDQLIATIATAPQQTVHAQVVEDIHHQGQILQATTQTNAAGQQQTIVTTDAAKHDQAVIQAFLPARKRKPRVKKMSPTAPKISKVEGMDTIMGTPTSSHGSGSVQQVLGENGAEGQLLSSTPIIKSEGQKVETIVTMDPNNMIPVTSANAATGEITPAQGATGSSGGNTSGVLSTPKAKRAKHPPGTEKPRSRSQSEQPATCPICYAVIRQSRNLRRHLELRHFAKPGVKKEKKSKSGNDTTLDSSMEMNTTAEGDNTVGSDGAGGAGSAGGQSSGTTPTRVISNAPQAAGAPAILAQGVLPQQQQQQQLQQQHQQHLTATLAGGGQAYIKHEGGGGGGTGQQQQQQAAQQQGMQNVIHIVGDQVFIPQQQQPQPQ
Experiment: EMSA
Conditions: GAF: band shift buffer of cited ref 25 (composition not given), poly(dI-dC) 10 ng, 4.5% acrylamide Tris/borate/EDTA gel; HSF: 10 ug extract protein, as in ref …

Sequence: CTGTTCTCGTTGCTTCGAGAGAGCGCGCCTCGAATGTTCGCGAAAAGAGCGCCGGAGTATAAATAGAGGAGCTTCGTCGACGGAGAGTCAA (double strand) [hsp70Aa promoter PCR fragment]
- binding: binds
